Results from doi:10.1101/479162v2.

Columns and labels:
Conditions in all cases: KSI (substrate inhibition) also fitted
[1] = substrate: O=C1OC2(c3ccc(OS(=O)(=O)O)cc3Oc3cc(OS(=O)(=O)O)ccc32)c2ccccc21; test: fluorescence, Michaelis-Menten kinetics of purified enzyme; assay type: biochemical, Ruegeria pomeroyi
purified protein [2] = substrate: O=[N+]([O-])c1ccc(OS(=O)(=O)O)cc1; test: purified protein
purified protein [3] = substrate: O=C1OC2(c3ccc(OS(=O)(=O)O)cc3Oc3cc(OS(=O)(=O)O)ccc32)c2ccccc21; test: purified protein

B1: SpAS1 (arylsulfatase 1 from Silicibacter pomeroyi DSS-3), purified (Ruegeria pomeroyi DSS-3) (protein)
chain: MTQNRNILWIMCDQLRFDYLSCYGHERLNTPNIDKLAKRGVRFTNAYVQATVCGPSRMSAYTGRYVRSHGSTQNGIPLRVGEPTLGDHLRDVGMRNVLIGKTHMRPDLDGMKRLGIDPDSEIGARVGEGGFDAFDRDDGVHPTGYRKKEPAYNDYLRHAGFQAENPWEFWANSAEGKGGENQSGWLLTHADKPARVPEEHSETAYMTRRAMEFMEAAEKDGRPWCAHLSYIKPHWPYIVPAPYHDMFGPDDVKPAVRSDEELKAAHPLFKAMTEEVYSRNFARDEVREKVIPAYMGLIKQIDDQLGQLFAFMQERGLDENTMIVFTADHGDYLGDHWMGEKYLFYEAAAKVPLIIYDPSDKADATRGTVSDALVEMIDLAPTFVDYAGGVPPMHILEGKSLLPLLHDDDSSWDRQYVFSELDYSNLPARLKLGRDIQDCRATMVFDGRYKLVEVMGFAPILFDLEVDPDELKDLGRDPSAEEVRQRLTSALDAWHRNTRQRITKSDAAYRALDPVLRESDPDLMAGVIIGYWDEDEVEAEKRRIARILGENS
[1]
  Km: 4.5 ± 0.5 mM
  kcat: 0.116 ± 0.004 s⁻¹
Purified protein [2]
  Km: 7.1 ± 1.7 mM
  kcat: 34 ± 5 s⁻¹

B2: SpAS1 (arylsulfatase 1 from Silicibacter pomeroyi DSS-3), purified (Ruegeria pomeroyi DSS-3; R429Q) (protein)
chain: MTQNRNILWIMCDQLRFDYLSCYGHERLNTPNIDKLAKRGVRFTNAYVQATVCGPSRMSAYTGRYVRSHGSTQNGIPLRVGEPTLGDHLRDVGMRNVLIGKTHMRPDLDGMKRLGIDPDSEIGARVGEGGFDAFDRDDGVHPTGYRKKEPAYNDYLRHAGFQAENPWEFWANSAEGKGGENQSGWLLTHADKPARVPEEHSETAYMTRRAMEFMEAAEKDGRPWCAHLSYIKPHWPYIVPAPYHDMFGPDDVKPAVRSDEELKAAHPLFKAMTEEVYSRNFARDEVREKVIPAYMGLIKQIDDQLGQLFAFMQERGLDENTMIVFTADHGDYLGDHWMGEKYLFYEAAAKVPLIIYDPSDKADATRGTVSDALVEMIDLAPTFVDYAGGVPPMHILEGKSLLPLLHDDDSSWDRQYVFSELDYSNLPAQLKLGRDIQDCRATMVFDGRYKLVEVMGFAPILFDLEVDPDELKDLGRDPSAEEVRQRLTSALDAWHRNTRQRITKSDAAYRALDPVLRESDPDLMAGVIIGYWDEDEVEAEKRRIARILGENS
[1]
  Km: 1.0 ± 0.1 mM
  kcat: 0.77 ± 0.04 s⁻¹
Purified protein [2]
  Km: 7.3 ± 1.5 mM
  kcat: 26 ± 3 s⁻¹

B3: SpAS1 (arylsulfatase 1 from Silicibacter pomeroyi DSS-3), purified (Ruegeria pomeroyi DSS-3; K147E/M111T) (protein)
chain: MTQNRNILWIMCDQLRFDYLSCYGHERLNTPNIDKLAKRGVRFTNAYVQATVCGPSRMSAYTGRYVRSHGSTQNGIPLRVGEPTLGDHLRDVGMRNVLIGKTHMRPDLDGTKRLGIDPDSEIGARVGEGGFDAFDRDDGVHPTGYREKEPAYNDYLRHAGFQAENPWEFWANSAEGKGGENQSGWLLTHADKPARVPEEHSETAYMTRRAMEFMEAAEKDGRPWCAHLSYIKPHWPYIVPAPYHDMFGPDDVKPAVRSDEELKAAHPLFKAMTEEVYSRNFARDEVREKVIPAYMGLIKQIDDQLGQLFAFMQERGLDENTMIVFTADHGDYLGDHWMGEKYLFYEAAAKVPLIIYDPSDKADATRGTVSDALVEMIDLAPTFVDYAGGVPPMHILEGKSLLPLLHDDDSSWDRQYVFSELDYSNLPARLKLGRDIQDCRATMVFDGRYKLVEVMGFAPILFDLEVDPDELKDLGRDPSAEEVRQRLTSALDAWHRNTRQRITKSDAAYRALDPVLRESDPDLMAGVIIGYWDEDEVEAEKRRIARILGENS
Purified protein [3]
  Km: 2.4 ± 0.2 mM
  kcat: 0.074 ± 0.002 s⁻¹
Purified protein [2]
  Km: 3.4 ± 0.3 mM
  kcat: 100 ± 4 s⁻¹
